Test results as given in patent publication US20240360227A1.

Assays:
[1] = target: Recombinant human his-tagged IGF R extracellular domain protein (human) (UniProt P08069); assay: SPR, Ab captured via anti-huIgG Fc, dissociation at pH 6
[2] = target: Recombinant human his-tagged IGF R extracellular domain protein (human) (UniProt P08069); assay: SPR, Ab captured via anti-huIgG Fc, pH 7.4

Binder | Kd [1] | koff [1] | kon [1] | Kd [2] | koff [2] | kon [2]
VRDN-02029 (antibody, V domains shown) VH: QVQLQESGPGLVKPSETLSLTCTVSGYSITGGYLWNWIRQPPGKGLEWIGYISYDGTNNYKPSLKDRVTISRDTSKNQFSLKLSSVTAADTAVYYCARYGRVFFDYWGQGTLVTVSS VL: DIVMTQSPLSLPVTPGEPASISCHSSQSIVHSNGNTYLQWYLQKPGQSPQLLIYKVSNRLYGVPDRFSGSGSGTDFTLKISRVEAEDVGVYYCFQGSHVPWTFGQGTKVEIK | 1.1 nM | 9.38e-05 s⁻¹ | 85600 M⁻¹ s⁻¹ | 0.599 nM | 5.53e-05 s⁻¹ | 92400 M⁻¹ s⁻¹
VRDN-02003 (antibody, V domains shown) VH: QVQLQESGPGLVKPSETLSLTCTVSGYHITGGYLWNWIRQPPGKGLEWIGYISYDGTNNYKPSLKDRVTISRDTSKNQFSLKLSSVTAADTAVYYCARYGRVFFDYWGQGTLVTVSS VL: DIVMTQSPLSLPVTPGEPASISCRSSQSIVHSNGNTYLQWYLQKPGQSPQLLIYKVSNRLYGVPDRFSGSGSGTDFTLKISRVEAEDVGVYYCFQGSHVPWTFGQGTKVEIK | 1 nM | 9.44e-05 s⁻¹ | 94300 M⁻¹ s⁻¹ | 0.423 nM | 4.72e-05 s⁻¹ | 112000 M⁻¹ s⁻¹
VRDN-02039 (antibody, V domains shown) VH: QVQLQESGPGLVKPSETLSLTCTVSGYSITGGYLWNWIRQPPGKGLEWIGYISYDGTNNYKPSLKDRVTISRDTSKNQFSLKLSSVTAADTAVYYCARYGRVFFDYWGQGTLVTVSS VL: DIVMTQSPLSLPVTPGEPASISCRSSQSIVHSNGHTYLQWYLQKPGQSPQLLIYKVSNRLYGVPDRFSGSGSGTDFTLKISRVEAEDVGVYYCFQGSHVPWTFGQGTKVEIK | 1.36 nM | 0.000109 s⁻¹ | 79800 M⁻¹ s⁻¹ | 0.586 nM | 5.26e-05 s⁻¹ | 89800 M⁻¹ s⁻¹
VRDN-02032 (antibody, V domains shown) VH: QVQLQESGPGLVKPSETLSLTCTVSGYSITGGYLWNWIRQPPGKGLEWIGYISYDGTNNYKPSLKDRVTISRDTSKNQFSLKLSSVTAADTAVYYCARYGRVFFDYWGQGTLVTVSS VL: DIVMTQSPLSLPVTPGEPASISCRSSHSIVHSNGNTYLQWYLQKPGQSPQLLIYKVSNRLYGVPDRFSGSGSGTDFTLKISRVEAEDVGVYYCFQGSHVPWTFGQGTKVEIK | 0.998 nM | 9.61e-05 s⁻¹ | 96300 M⁻¹ s⁻¹ | 0.769 nM | 7.16e-05 s⁻¹ | 93100 M⁻¹ s⁻¹
VRDN-02038 (antibody, V domains shown) VH: QVQLQESGPGLVKPSETLSLTCTVSGYSITGGYLWNWIRQPPGKGLEWIGYISYDGTNNYKPSLKDRVTISRDTSKNQFSLKLSSVTAADTAVYYCARYGRVFFDYWGQGTLVTVSS VL: DIVMTQSPLSLPVTPGEPASISCRSSQSIVHSNHNTYLQWYLQKPGQSPQLLIYKVSNRLYGVPDRFSGSGSGTDFTLKISRVEAEDVGVYYCFQGSHVPWTFGQGTKVEIK | 1.31 nM | 0.000111 s⁻¹ | 84800 M⁻¹ s⁻¹ | 0.649 nM | 5.36e-05 s⁻¹ | 82600 M⁻¹ s⁻¹
VRDN-02033 (antibody, V domains shown) VH: QVQLQESGPGLVKPSETLSLTCTVSGYSITGGYLWNWIRQPPGKGLEWIGYISYDGTNNYKPSLKDRVTISRDTSKNQFSLKLSSVTAADTAVYYCARYGRVFFDYWGQGTLVTVSS VL: DIVMTQSPLSLPVTPGEPASISCRSSQHIVHSNGNTYLQWYLQKPGQSPQLLIYKVSNRLYGVPDRFSGSGSGTDFTLKISRVEAEDVGVYYCFQGSHVPWTFGQGTKVEIK | 1.19 nM | 0.00011 s⁻¹ | 92700 M⁻¹ s⁻¹ | 0.822 nM | 8.1e-05 s⁻¹ | 98500 M⁻¹ s⁻¹
VRDN-02035 (antibody, V domains shown) VH: QVQLQESGPGLVKPSETLSLTCTVSGYSITGGYLWNWIRQPPGKGLEWIGYISYDGTNNYKPSLKDRVTISRDTSKNQFSLKLSSVTAADTAVYYCARYGRVFFDYWGQGTLVTVSS VL: DIVMTQSPLSLPVTPGEPASISCRSSQSIHHSNGNTYLQWYLQKPGQSPQLLIYKVSNRLYGVPDRFSGSGSGTDFTLKISRVEAEDVGVYYCFQGSHVPWTFGQGTKVEIK | 1.22 nM | 0.000107 s⁻¹ | 87600 M⁻¹ s⁻¹ | 0.646 nM | 6.32e-05 s⁻¹ | 97800 M⁻¹ s⁻¹
VRDN-02037 (antibody, V domains shown) VH: QVQLQESGPGLVKPSETLSLTCTVSGYSITGGYLWNWIRQPPGKGLEWIGYISYDGTNNYKPSLKDRVTISRDTSKNQFSLKLSSVTAADTAVYYCARYGRVFFDYWGQGTLVTVSS VL: DIVMTQSPLSLPVTPGEPASISCRSSQSIVHSHGNTYLQWYLQKPGQSPQLLIYKVSNRLYGVPDRFSGSGSGTDFTLKISRVEAEDVGVYYCFQGSHVPWTFGQGTKVEIK | 1.44 nM | 0.000101 s⁻¹ | 70000 M⁻¹ s⁻¹ | 0.844 nM | 6.43e-05 s⁻¹ | 76200 M⁻¹ s⁻¹
VRDN-02030 (antibody, V domains shown) VH: QVQLQESGPGLVKPSETLSLTCTVSGYSITGGYLWNWIRQPPGKGLEWIGYISYDGTNNYKPSLKDRVTISRDTSKNQFSLKLSSVTAADTAVYYCARYGRVFFDYWGQGTLVTVSS VL: DIVMTQSPLSLPVTPGEPASISCRHSQSIVHSNGNTYLQWYLQKPGQSPQLLIYKVSNRLYGVPDRFSGSGSGTDFTLKISRVEAEDVGVYYCFQGSHVPWTFGQGTKVEIK | 1.09 nM | 9.65e-05 s⁻¹ | 88900 M⁻¹ s⁻¹ | 0.646 nM | 5.48e-05 s⁻¹ | 84800 M⁻¹ s⁻¹
VRDN-02031 (antibody, V domains shown) VH: QVQLQESGPGLVKPSETLSLTCTVSGYSITGGYLWNWIRQPPGKGLEWIGYISYDGTNNYKPSLKDRVTISRDTSKNQFSLKLSSVTAADTAVYYCARYGRVFFDYWGQGTLVTVSS VL: DIVMTQSPLSLPVTPGEPASISCRSHQSIVHSNGNTYLQWYLQKPGQSPQLLIYKVSNRLYGVPDRFSGSGSGTDFTLKISRVEAEDVGVYYCFQGSHVPWTFGQGTKVEIK | 1.22 nM | 0.000115 s⁻¹ | 94400 M⁻¹ s⁻¹ | 0.468 nM | 4.56e-05 s⁻¹ | 97300 M⁻¹ s⁻¹
VRDN-02034 (antibody, V domains shown) VH: QVQLQESGPGLVKPSETLSLTCTVSGYSITGGYLWNWIRQPPGKGLEWIGYISYDGTNNYKPSLKDRVTISRDTSKNQFSLKLSSVTAADTAVYYCARYGRVFFDYWGQGTLVTVSS VL: DIVMTQSPLSLPVTPGEPASISCRSSQSHVHSNGNTYLQWYLQKPGQSPQLLIYKVSNRLYGVPDRFSGSGSGTDFTLKISRVEAEDVGVYYCFQGSHVPWTFGQGTKVEIK | 1.26 nM | 0.000107 s⁻¹ | 85000 M⁻¹ s⁻¹ | 1.03 nM | 0.000105 s⁻¹ | 101000 M⁻¹ s⁻¹
VRDN-02036 (antibody, V domains shown) VH: QVQLQESGPGLVKPSETLSLTCTVSGYSITGGYLWNWIRQPPGKGLEWIGYISYDGTNNYKPSLKDRVTISRDTSKNQFSLKLSSVTAADTAVYYCARYGRVFFDYWGQGTLVTVSS VL: DIVMTQSPLSLPVTPGEPASISCRSSQSIVHHNGNTYLQWYLQKPGQSPQLLIYKVSNRLYGVPDRFSGSGSGTDFTLKISRVEAEDVGVYYCFQGSHVPWTFGQGTKVEIK | 1.08 nM | 0.000102 s⁻¹ | 94200 M⁻¹ s⁻¹ | 0.444 nM | 4.42e-05 s⁻¹ | 99500 M⁻¹ s⁻¹
